Measurements taken from patent US20140099312A1 (Regeneron, published 2014).

Target: hPCSK9(D374Y)-mmh (human, UniProt Q8NBP7 31-692)
Assay: cell-based or functional assay

- IC50, LDL uptake in HepG2 cells: 1.1 nM
B1: H1M300N (antibody, V domains shown)
VH: EMQLVESGGGLVQPGGSLRLSCAASGFTFSSHWMKWVRQAPGKGLEWVANINQDGSEKYYVDSVKGRFTISRDNAKNSLFLQMNSLRAEDTAVYYCARDIVLMVYDMDYYYYGMDVWGQGTTVTVSS
VL: not shown
